Laboratory results: publication PMC5373536, “Proteomic analysis of organic sulfur compound utilisation in Advenella mimigardefordensis strain DPN7^T” (PLoS ONE, 2017)

Substrate: O=C(O)CC(S)C(=O)O
Assay: oxygen consumption, oxygen electrode, nonlinear regression
Assay type: biochemical, Advenella mimigardefordensis
Conditions: 100 mM Tris/HCl pH 7.4, 0.05-75 mM MS, 2 ug/ml enzyme, O2 co-substrate

B1: MsdoDPN7 (MsdoAm; MIM_c37420) (Advenella mimigardefordensis DPN7) (protein)
chain: MTSKQDKQVAIRQFIDITKDIDSAQLDREKLAKIRDALVGIAAHKEWWGQDLYPAPTGDELQARYLIHAEPDNSYALYLNVMKPGKKIVPHNHTTWACIAAVEGVESNYLYERTDDGSVPGHATVVQTGMQAVEPGHGIALMPDDIHAVRIEDDNIRHLHMYGRALETLTERMAFDTSNNTCKIMDVGVKTQRSKG
notes: full gene in pET-19b (NdeI/XhoI), N-terminal His tag, expressed in E. coli BL21(DE3) pLysS, Ni-NTA purified; tag removal not mentioned
Km: 200 µM
